Results from US20160024208A1 (Regeneron, published 2016).

T1: Native Nav1.7 (3-1) peptide, rat (rat)
T1 construct: Synthetic peptide; also called Rat Nav1.7 3-1 native
T1 peptide: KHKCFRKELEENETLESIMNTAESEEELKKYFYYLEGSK

T2: Native Nav1.7 (3-1) peptide, human (human)
T2 construct: Synthetic peptide (Celtek), unbiotinylated; also called Human Nav1.7 3-1 native; Nav1.7 3-1 native peptide
T2 peptide: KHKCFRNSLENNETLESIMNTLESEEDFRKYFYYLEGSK

T3: N-Term Biotin Nav1.7 (3-1) peptide, mouse (mouse, not fully specified; N-terminal biotin attached via a G4S linker)
T3 construct: Synthetic peptide; also called Mouse Nav1.7 3-1 N-term biotin
T3 peptide: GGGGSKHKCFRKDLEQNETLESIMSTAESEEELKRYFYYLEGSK

T4: N-Term Biotin Nav1.7 (3-1) peptide, mulatta (mulatta (monkey), not fully specified; N-terminal biotin attached via a G4S linker)
T4 construct: Synthetic peptide; also called Mulatta Nav1.7 3-1 N-term biotin; monkey
T4 peptide: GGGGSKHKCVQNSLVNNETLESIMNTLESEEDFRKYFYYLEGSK

T5: C-term Biotin Nav1.7 (3-1) peptide, human (human, not fully specified; C-terminal biotin attached via a G4S linker)
T5 construct: Synthetic peptide; also called Human Nav1.7 3-1 C-term biotin
T5 peptide: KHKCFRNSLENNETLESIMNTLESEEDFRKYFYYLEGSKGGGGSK

T6: N-Term Biotin-Nav1.7 (3-1) peptide, human (human, not fully specified; N-terminal biotin attached via a G4S linker)
T6 construct: ELISA peptide
T6 peptide: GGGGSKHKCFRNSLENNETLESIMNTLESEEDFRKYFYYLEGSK


What was measured:
[1] = molecular target: T7, full-length human Nav1.7 fused at its N-terminus to GFP, expressed in HEK293 cells (human, UniProt Q15858 1-1988); experiment: flow cytometry on Nav1.7-GFP-HEK293, antibody 3.3 nM preincubated with 3.3 uM EC 3-1 peptide as competitor
T7 construct: Voltage-gated sodium channel alpha subunit; In the Western blot it stood as denatured cell lysate; also called hNav 1.7-GFP-HEK293; Nav 1.7-GFP-HEK293; not shown: green fluorescent protein (GFP) at the N-terminus
Method: (§1) The specificity of binding of anti-Naᵥ 1.7 human antibodies to full-length Naᵥ 1.7 expressed in HEK293 cells was determined by peptide competition experiments using flow cytometry.
(§2) HEK293 cells stably-transfected with full-length Naᵥ 1.7 fused at its N-terminus to GFP (Naᵥ 1.7-GFP-HEK293) were used for this study. Antibody binding to the transfected cells overexpressing Naᵥ 1.7 was compared to binding in the presence of excess peptide and to binding to the parental HEK293 cell line. To perform the binding experiments, adherent cells were collected using 1 mM EDTA in PBS, washed and re-suspended in cold PBS containing 5% FBS. For each binding experiment the anti-Naᵥ 1.7 antibody at a final concentration of 3.3 nM (in PBS/5% FBS) was added to cells either directly or after incubating for 10 min on ice with a 1000-fold molar excess (3.3 uM final concentration in PBS/5% FBS) of synthetic peptide with sequence corresponding to the loop specificity of the antibody. The antibodies designated as H4H391P, H4H443B, H4H448B, and H1M797N were preincubated as described above with a synthetic peptide corresponding to EC loop 3-1 (amino acid residues 269-338 of SEQ ID NO: 670), whereas the antibodies designated as H4H468P and H1 M852N were preincubated with a synthetic peptide corresponding to EC loop 3-3 (amino acid residues 1333-1382 of SEQ ID NO: 670). The antibody or antibody-peptide mixture was then allowed to incubate with cells for 20 min on ice, followed by addition of 500 uL of cold PBS/5% FBS. Cells were collected by centrifugation, resuspended in 500 uL of cold PBS/5% FBS, and then secondary antibody matched to the antibody isotype (either anti-human-Fc conjugated to Cyanine 5 or anti-mouse-Fc conjugated to allophyococyanin) was added. Binding was detected on the flow cytometry instrument and analyzed as percent binding using the instrument software. For FACS analysis appropriate gating was applied so that only healthy, live cells were counted. Background staining of secondary antibodies alone to Naᵥ 1.7-GFP-HEK293 cells was tested and recorded for all samples, and results ranged between 1-2% binding.

[2] = molecular target: T7, full-length human Nav1.7 fused at its …; experiment: flow cytometry on Nav1.7-GFP-HEK293, antibody 3.3 nM
Method: as §1, §2

[3] = molecular target: T7, full-length human Nav1.7 fused at its …; experiment: flow cytometry; % stained hNav1.7-GFP-HEK293 minus parental HEK293
Method: The binding of anti-Naᵥ 1.7 human antibodies to full-length Naᵥ 1.7 expressed in HEK293 cells was determined by flow cytometry (FACS). HEK293 cells were stably-transfected with full-length human Nav1.7 fused at its N-terminus to the green fluorescent protein (GFP) to generate cell line hNaᵥ 1.7-GFP-HEK293. Antibody binding to the transfected cells overexpressing Naᵥ 1.7 was compared to binding to the parental HEK293 cell line. To perform the binding experiments, adherent cells were collected using 1 mM EDTA in PBS, washed and re-suspended in cold PBS containing 5% FBS. For each binding experiment, the anti-Naᵥ 1.7 antibody (at concentrations ranging from 1 nM to 13 nM), was added to 250,000 cells in 500 μL of PBS with 5% FBS. After incubation for 20 minutes on ice, the secondary antibody, recognizing either human-Fc and conjugated to cyanine 5 (Cy5) or recognizing mouse-Fc and conjugated to allophyocyanin (APC), was then added to the cell mixture at a final secondary antibody concentration of 1.7 nM. After incubating for 20 minutes on ice, the cells were resuspended in PBS+5% FBS and then sorted and analyzed on a flow cytometer to determine relative binding by the candidate antibodies. For FACS analysis, gating was applied to examine only healthy live cells in the antibody binding experiments, and percentage stained was recorded. Staining of secondary antibodies alone to Naᵥ 1.7-GFP-HEK293 cells gave low background signals (1-2%). Specific binding was measured as the percent binding to Naᵥ 1.7-GFP-HEK293 cells minus percent binding to parental HEK293 cells.

[4] = molecular target: T1, Native Nav1.7 (3-1) peptide, rat; experiment: SPR, captured antibody, peptide analyte
Method: (§3) The binding affinities of anti-Naᵥ 1.7 antibodies to Naᵥ 1.7 loop peptides were determined by Biacore. For monovalent kinetic experiments, antibodies were captured through the Fc region via a goat anti-Fc-coupled biosensor surface, and the peptides (as analyte) were injected over this captured antibody surface. For bivalent (avidity-driven) kinetic experiments, biotinylated peptides corresponding to the Naᵥ 1.7 3-1, 3-3, or paddle loop sequences were captured on a NeutrAvidin sensor surface, and anti-Naᵥ 1.7 antibodies (as analyte) were injected over this surface. Following the capture step, each analyte was individually injected at several concentrations over its respective capture surface, and changes in bound surface units (RU) were monitored. The dissociation rate is independent of the concentration of analyte used in the experiment, and the dissociation rate constant (kd) was determined from the change in antibody-bound analyte RU over time. The Biacore kinetic data were obtained using a double referencing procedure. The double referencing was conducted by first subtracting any interaction of the analyte over the reference surface (i.e., the anti-Fc coupled surface alone or the NeutrAvidin surface alone), thereby correcting for nonspecific binding to capture surface and for refractive index changes. Control buffer injections (no analyte) over the antibody- or peptide-captured surfaces were also performed to allow subtraction of RU signal changes resulting from the natural dissociation of captured binding partner from the sensor surface. The kinetic parameters were obtained by globally fitting the data for all concentrations tested for a given peptide or antibody to a 1:1 binding model using Biacore T100 Evaluation Software version 2.0.2. The KD was calculated as the dissociation rate constant divided by the association rate constant (KD=kd/kₐ). The dissociative half-life (t_{1/2}) was calculated from the dissociation rate constant (t_{1/2}=In2/kd).

[5] = molecular target: T2, Native Nav1.7 (3-1) peptide, human; experiment: SPR, captured antibody, peptide analyte
Method: as §3

[6] = molecular target: T3, N-Term Biotin Nav1.7 (3-1) peptide, …; experiment: SPR, captured antibody, peptide analyte
Method: as §3

[7] = molecular target: T4, N-Term Biotin Nav1.7 (3-1) peptide, …; experiment: SPR, captured antibody, peptide analyte
Method: as §3

[8] = molecular target: T5, C-term Biotin Nav1.7 (3-1) peptide, …; experiment: SPR, captured biotin-peptide, antibody analyte
Method: as §3

[9] = molecular target: T3, N-Term Biotin Nav1.7 (3-1) peptide, …; experiment: ELISA on coated peptide
Method: (§4) Anti-Naᵥ 1.7 antibodies were tested for their ability to bind to the Naᵥ 1.7 peptides. The various peptides were coated overnight onto 96-well Nunc Immunosorp plates at a concentration of 4 μg/mL in PBS, followed by blocking for 1 hour in a suitable blocking agent. For biotinylated peptides, avidin was first coated on Nunc Immunosorp plates at 2 μg/mL in PBS overnight, followed by blocking as described, and the plate was then coated with biotinylated peptides at a concentration of 0.4 μg/mL and incubated for 1 hour at room temperature. Purified anti-Naᵥ 1.7 antibodies were diluted to a final concentration of 0.1 μg/mL and 1.0 μg/mL and added to the wells of the coated microtiter plates followed by incubation for 1 hour at room temperature. Bound antibodies were detected with horseradish peroxidase (HRP) conjugated anti-mouse or anti-human IgG (Jackson Immuno Research Lab, West Grove, Pa.) depending on the antibody species and developed by colorimetric response using tetramethylbenzidine (TMB) substrate (BD Biosciences). Absorbance was read at OD₄₅₀ on a plate reader for 0.1 second.
(§5) Values in Table 11 represent absolute binding ranges (at OD450) to plate-coated peptides for antibodies added at 1 μg/ml as follows: OD450<0.2: −; 0.2<OD450<1: +; 1<OD450<2: ++; 2<OD450<4: +++; NT: Not Tested.

[10] = molecular target: T6, N-Term Biotin-Nav1.7 (3-1) peptide, …; experiment: ELISA on coated peptide, antibody 1 ug/ml, OD450 grade
Method: as §4, §5

[11] = molecular target: T1, Native Nav1.7 (3-1) peptide, rat; experiment: as above
Method: as §4, §5

[12] = molecular target: T3, N-Term Biotin Nav1.7 (3-1) peptide, …; experiment: as above
Method: as §4, §5

[13] = molecular target: T4, N-Term Biotin Nav1.7 (3-1) peptide, …; experiment: as above
Method: as §4, §5

[14] = molecular target: T7, full-length human Nav1.7 fused at its …; experiment: cell-based or functional assay

Binder	% Binding Nav1.7 + 1000x Peptide (Competition Binding) [1] [%]	% Binding Nav1.7 (Stable Line) [2] [%]	% Binding Nav1.7 [3] [%]	Kd [5] [nM]	t1/2 [5] [min]	binding result [6]	Kd [7] [nM]	t1/2 [7] [min]	Kd [8] [nM]	t1/2 [8] [min]	other results
H1M994N (antibody, V domains shown, Hybridoma-derived) VH: QVQLVESGGGVVQPGRSLRLSCAASGFTFSSYGMHWVRQAPGKGLEWVAVISYDGNNKHFADSVKGRFTISRDNSKNTLNLQMNSLRAEDRAVYYCARGASGFVLDIWGQGTMVTVSS VL: DIVMTQTPLSSPVTLGQPASISCRSSQSLVRSDGNTYLSWLQQRPGQPPRLLIYKISNRFSGVPDRFSGSGAGTDFTLKISRVEAEDVGIYFCMQTTQFPFTFGPGTKVDIK	33.4	93	36	–	–	–	–	–	–	–	–
H1M826N (antibody, V domains shown, Hybridoma-derived) VH: QVQLVESGGGVVQPERSLRLSCAASGFTFSSYGMHWVRQAPGEGLEWVAVISYDGSNTKYADSVRGRFTISRDNSKNMLYLQMNSLRAEDTAVFYCARGYSGYAFDYWGQGILVTVSS VL: DIVMTQTPLSSPVTLGQPASISCRSSHSLVRSDGNTYLSWLQQRPGQPPRLLIYKISNRFSGVPDRFSGTGAGTDFTLKINRVEAEDVGFYYCMQATQFPFTFGPGTKVDIK	17.7	95.6	61	–	–	–	–	–	–	–	–
H4H391P (antibody, V domains shown) VH: QVQLVESGGGVVQPGRSLRLSCAASGFTFSSYGMHWVRQAPGKGLEWVAVISYEGSNKHYADSVKGRFTISRDNSKNTLYLQMNSLRAEDTAVFYCAQSRGYSYGLGYWGQGTLVTVSS VL: not shown	2.6	7.8	14.3	13.6	8.1	no binding	2.18	36.1	0.802	64.6	binding result [4]: no binding
H4H408B (antibody, V domains shown) VH: QVQLVESGGGVVQPGRSLRLSCAASGFTFSSYGMHWVRQAPGKGLEWVAVISYQESNKHYVDSVKGRFTISRDNSKNTLYLQMNSLRAEDTAVYYCAQSRGYSYGLGYWGQGTLVTVSS VL: DIQMTQSPSSLSASVGDRVTITCRASQGIRNDLGWYQQKPGKAPKRLIYAASSLQSGVPSRFSGSGSGTEFTLTISSLQPEDFATYYCQQHNSYPLTFGQGTKVEIKR	–	–	–	–	–	no binding	–	–	–	–	OD450 [9]: < 0.2 od
H1H1019B (antibody, V domains shown) VH: EVQLVESGPGLVKPSETLSLKCTVSGGSIRSSGYYWGWIRQPPGKGLEWIGSIHHSGSTYYNPSLKSRVTISVDTSKSQFSLRLTSVTAADTAVYYCGRHGRDYYYGMDVWGQGTTVTVSS VL: AIQLTQSPSSLSASVGDRVTITCRASQDINNWLVWYQQKPGKAPKLLIYAASSLQSGVPSRFSGSGSGTDFTLTISSLQPEDFATYYCQQANSFPLTFGGGTKVDIKR	–	–	28.1	113	0.44	–	12.6	2.8	0.231	29.8	Kd [4]: 101 nM; t1/2 [4]: 0.11 min; Kd [6]: 351 nM; t1/2 [6]: 0.083 min; OD450 [10]: 2 to 4 od; OD450 [11]: 2 to 4 od; OD450 [12]: 2 to 4 od; OD450 [13]: 2 to 4 od; Current blocking (Average % inhibition), IonWorks Quattro, 223 nM antibody [14]: 24%
